Assays:
[1] = biological target: Kluyveromyces lactis β-galactosidase mutant R116C/T270C (Kluyveromyces lactis) (UniProt P00723); assay: AUC; sedimentation velocity, 0.1 mg/mL enzyme, 50 mM Tris-HCl, 150 mM NaCl, pH 7.4, 48 k rpm, c(s) distribution (SEDFIT); self-association
[2] = biological target: Kluyveromyces lactis β-galactosidase mutant R116C/T270C (Kluyveromyces lactis) (UniProt P00723); assay: AUC; sedimentation velocity, 0.2 mg/mL enzyme, 50 mM Tris-HCl, 150 mM NaCl, pH 7.4, 48 k rpm, c(s) distribution (SEDFIT); self-association, shares of monomer, dimer, trimer and tetramer
[3] = biological target: Kluyveromyces lactis β-galactosidase mutant R116C/T270C/G818C (Kluyveromyces lactis) (UniProt P00723); assay: AUC; sedimentation velocity, 0.1 mg/mL enzyme, 50 mM Tris-HCl, 150 mM NaCl, pH 7.4, 48 k rpm, c(s) distribution (SEDFIT); self-association
[4] = biological target: Kluyveromyces lactis β-galactosidase mutant R116C/T270C/G818C (Kluyveromyces lactis) (UniProt P00723); assay: AUC; sedimentation velocity, 0.2 mg/mL enzyme, 50 mM Tris-HCl, 150 mM NaCl, pH 7.4, 48 k rpm, c(s) distribution (SEDFIT); self-association, shares of monomer, dimer, trimer and tetramer

Row | Substance | increase in monomeric forms at 0.1 mg/mL against 0.2 mg/mL [1] | percent of the protein as dimer [2] | percent of the protein as monomer [2] | percent of the protein as tetramer [2] | percent of the protein as trimer [2] | increase in monomeric forms at 0.1 mg/mL against 0.2 mg/mL [3] | percent of the protein as dimer [4] | percent of the protein as monomer [4] | percent of the protein as tetramer [4] | percent of the protein as trimer [4]
1 | Kluyveromyces lactis β-galactosidase mutant R116C/T270C (from UniProt P00723 2-1025) (enzyme) | 0.8% | 20.9% | 21.9% | 49.3% | 7.9% |  |  |  |  | 
2 | Kluyveromyces lactis β-galactosidase mutant R116C/T270C/G818C (from UniProt P00723 2-1025) (enzyme) |  |  |  |  |  | 2.1% | 57.2% | 7.3% | 23% | 12.6%

— publication PMC5374532, “Rational mutagenesis by engineering disulphide bonds improves Kluyveromyces lactis beta-galactosidase for high-temperature industrial applications” (Scientific Reports, 2017)
